B1: CPEB3 Ribozyme (parent)
chain: UAACAGGGGGCCACAGCAGAAGCGUUCACGUCGCAGCCCCUGUCAGAUUCUGGUGAAUCUGCGAAUUCUGCUGUAUAUCUC

Variants of: B1
Test: self-cleavage, relative activity (ratio to wild type); higher = more cleavage; in vitro, sequencing
Procedure, shortened: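 Relative activity compares each variant's cleaved/total read fraction with that of the unmutated ribozyme. To get these fractions, barcoded CPEB3 ribozyme libraries from rounds of error-prone PCR were transcribed with T7 RNA polymerase for 5 hours at 37°C and then given 15 min of DNase I treatment before EDTA was added. The RNAs were reverse transcribed with template switching and sequenced on Illumina, and DNA sequencing linked barcodes to variants. A minimum of 5 reads applied, and three batches were averaged.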

Compared with C34U U58C, G33C U72C is higher in self-cleavage: 0.16 for the first, 0.19 for the second.

Compared with G33C U72A, C34U U49C is higher in self-cleavage: 0.09 for the first, 0.16 for the second.

Compared with C34G A56G, C34A G70C is lower in self-cleavage: 0.18 for the first, 0.17 for the second.

Going from G33U U49G to G33U U49C, the self-cleavage falls from 0.2 to 0.15.

Compared with G33U U58C, A35C U74C is higher in self-cleavage: 0.13 for the first, 1.17 for the second.

Going from A35G C40A to A35G C40G, the self-cleavage rises from 0.55 to 0.66.

First: G33C G52A
Second: A35C U48A
The self-cleavage of the first is lower: 0.19 for the first, 0.45 for the second.

First: A35C U48C
Second: C34U U74A
The self-cleavage of the first is lower: 0.47 for the first, 0.52 for the second.

Compared with C34U U74C, G33A U80C is lower in self-cleavage: 0.84 for the first, 0.31 for the second.

Going from G33A U80G to G33A U80A, the self-cleavage rises from 0.14 to 0.29.

Going from G33C C40A to C34A A47G, the self-cleavage rises from 0.15 to 0.31.

Going from A35C U43C to A35C U43A, the self-cleavage rises from 0.35 to 1.06.

First: G33U G61C
Second: A35C U78A
The self-cleavage of the first is lower: 0.13 for the first, 0.74 for the second.

Going from A35C U78C to C34U A75G, the self-cleavage falls from 0.73 to 0.18.

Going from C34G U51C to A35C U67A, the self-cleavage falls from 0.29 to 0.23.

Going from A35C U67G to A35C U67C, the self-cleavage falls from 0.39 to 0.23.

Compared with G33C A64G, A35G is higher in self-cleavage: 0.18 for the first, 1.27 for the second.

Compared with A35C, C34U A64U is lower in self-cleavage: 0.85 for the first, 0.13 for the second.

First: C34U A64G
Second: A35C U66C
The self-cleavage of the first is lower: 0.45 for the first, 0.5 for the second.

Going from A35C U66A to A35C U60C, the self-cleavage rises from 0.21 to 0.48.

Compared with C34U A65G, G33U U69C is lower in self-cleavage: 0.34 for the first, 0.2 for the second.

First: G33A G52A
Second: G33A G52C
The self-cleavage of the first is higher: 0.3 for the first, 0.12 for the second.

Compared with C34G U60C, C34U U76A is higher in self-cleavage: 0.15 for the first, 0.5 for the second.

Going from C34U U76C to G33U A64G, the self-cleavage falls from 0.35 to 0.12.

Compared with C34G U49A, C34G U49C is lower in self-cleavage: 0.24 for the first, 0.07 for the second.

Going from C34U U67A to C34U U67C, the self-cleavage falls from 0.42 to 0.12.

Going from C34U U67G to C34U U78C, the self-cleavage rises from 0.12 to 0.3.

Going from G33C A77G to G33U A57G, the self-cleavage rises from 0.11 to 0.28.

Compared with G33C U51C, G33C U51A is lower in self-cleavage: 0.44 for the first, 0.15 for the second.

First: C34U U60C
Second: C34U U60A
The self-cleavage of the first is lower: 0.11 for the first, 0.14 for the second.

Going from A35G A75G to A35G A75U, the self-cleavage falls from 1.31 to 1.27.

Compared with A35G A75C, C34U A56U is lower in self-cleavage: 1.25 for the first, 0.34 for the second.

Going from C34U A56G to C34U U66C, the self-cleavage falls from 0.48 to 0.35.

Compared with G33A C62U, G33A C62A is higher in self-cleavage: 0.11 for the first, 0.37 for the second.

Compared with C34U C71A, A35C U80C is higher in self-cleavage: 0.13 for the first, 0.84 for the second.

Compared with A35C U80A, C34U U54C is lower in self-cleavage: 0.89 for the first, 0.44 for the second.

First: C34U U54A
Second: G33A U76C
The self-cleavage of the first is higher: 0.24 for the first, 0.19 for the second.

Going from C34U U72A to C34U U72C, the self-cleavage rises from 0.26 to 0.63.

Compared with C34U U72G, G33C U80C is lower in self-cleavage: 0.33 for the first, 0.27 for the second.

Compared with C34G C44A, C34U A35U is higher in self-cleavage: 0.1 for the first, 0.27 for the second.

Compared with C34U A35G, C34U U48G is lower in self-cleavage: 0.36 for the first, 0.3 for the second.

Going from C34U U48C to C34A U67C, the self-cleavage falls from 0.47 to 0.29.

First: C34A U67A
Second: G33U U67C
The self-cleavage of the first is higher: 0.33 for the first, 0.16 for the second.

Going from G33U U80A to G33U U80C, the self-cleavage rises from 0.25 to 0.44.

Going from G33U G36U to C34G U41C, the self-cleavage rises from 0.13 to 0.14.

Going from G33C A47G to G33A G61A, the self-cleavage rises from 0.08 to 0.14.

First: C34A A45G
Second: C34A A45C
The self-cleavage of the first is higher: 0.37 for the first, 0.19 for the second.

Going from G33A G36A to A35G C37G, the self-cleavage rises from 0.07 to 0.89.

Going from A35G C37A to C34U C44A, the self-cleavage falls from 0.86 to 0.38.

Compared with A35C A64G, A35C A64U is lower in self-cleavage: 0.3 for the first, 0.25 for the second.

Compared with C34U U43A, C34U U43C is lower in self-cleavage: 0.51 for the first, 0.22 for the second.

Going from A35G C38A to A35G C38U, the self-cleavage rises from 1.21 to 1.23.

Compared with A35G C38G, C34A U48C is lower in self-cleavage: 0.96 for the first, 0.13 for the second.

Going from G33U A45C to G33U A45G, the self-cleavage rises from 0.12 to 0.13.

Going from C34G C68U to C34G C68A, the self-cleavage falls from 0.15 to 0.1.

Compared with A35C C40A, G33C C79U is lower in self-cleavage: 0.6 for the first, 0.19 for the second.

Compared with C34G C71U, A35C C39A is lower in self-cleavage: 0.52 for the first, 0.31 for the second.

Going from G33U U72C to G33U U72G, the self-cleavage rises from 0.19 to 0.28.

Going from G33A U43A to G33A U43G, the self-cleavage rises from 0.32 to 0.34.

First: G33A U43C
Second: A35C A56U
The self-cleavage of the first is lower: 0.29 for the first, 0.53 for the second.

First: A35C A56G
Second: C34A U54A
The self-cleavage of the first is higher: 0.77 for the first, 0.17 for the second.

First: A35C G55U
Second: G33A G73A
The self-cleavage of the first is higher: 0.81 for the first, 0.51 for the second.

Going from G33C U43C to G33C U43A, the self-cleavage falls from 0.22 to 0.18.

Going from G33U U60A to G33U U60C, the self-cleavage falls from 0.48 to 0.11.

Going from G33C G53C to C34G U48C, the self-cleavage rises from 0.07 to 0.21.

Compared with C34U G36U, A35C U41G is higher in self-cleavage: 0.14 for the first, 0.2 for the second.

Going from A35C U41C to A35C U41A, the self-cleavage falls from 0.72 to 0.47.

First: G33C U54C
Second: A35C U76G
The self-cleavage of the first is lower: 0.13 for the first, 0.77 for the second.

Going from A35C U76C to C34G A77C, the self-cleavage falls from 0.96 to 0.08.

First: C34U U69C
Second: C34U U69A
The self-cleavage of the first is higher: 0.35 for the first, 0.13 for the second.

First: C34G U58C
Second: C34G U58A
The self-cleavage of the first is higher: 0.15 for the first, 0.11 for the second.

Going from G33C C38U to C34G C62G, the self-cleavage falls from 0.12 to 0.04.

Compared with G33C G36C, C34G G42A is higher in self-cleavage: 0.15 for the first, 0.62 for the second.

Going from C34U G46A to C34G A45C, the self-cleavage rises from 0.07 to 0.19.

First: G33A U51G
Second: G33A U51A
The self-cleavage of the first is lower: 0.19 for the first, 0.26 for the second.

First: G33A U51C
Second: A35C U72C
The self-cleavage of the first is lower: 0.37 for the first, 1.14 for the second.

Compared with A35C U72G, G33C C62U is lower in self-cleavage: 0.43 for the first, 0.14 for the second.

Going from A35G A45C to A35G A45U, the self-cleavage falls from 1.17 to 1.13.

Compared with A35G A45G, C34U is lower in self-cleavage: 1.26 for the first, 0.35 for the second.

First: C34G
Second: C34A
The self-cleavage of the first is lower: 0.33 for the first, 0.34 for the second.

Going from C34G G63C to G33A U48G, the self-cleavage falls from 0.24 to 0.18.

Compared with G33A U48C, G33A U67A is lower in self-cleavage: 0.26 for the first, 0.15 for the second.

First: G33A U67C
Second: C34A A56U
The self-cleavage of the first is lower: 0.22 for the first, 0.43 for the second.

For C34A A56G, the self-cleavage was 0.22.

Source: the RNAGym collection of RNA variant scans (doi:10.1093/nar/gkz1192)
